Laboratory results: publication PMC11555717 (Cancer Medicine, 2024)

How the values were obtained:
[1] = EV-203 immunogenicity: antitherapeutic antibodies (ATAs) against enfortumab vedotin; format: in vivo, human; conditions: 38 participants tested
Description: In the PK cohort (i.e., PK analysis set), intensive PK sampling was performed wherein blood samples for analysis of ADC, total antibody (TAb), and free (unconjugated) MMAE were collected at prespecified time points. […] Blood samples for antitherapeutic antibodies (ATAs) were collected predose on Day 1 of cycles 1 to 4, 6, 8, 10, and within 30–37 days after the last study dose. Validated assays were used to measure concentrations of ADC, TAb, and free MMAE in serum or plasma and to assess ATA levels.
Secondary endpoints were confirmed ORR by investigator assessment; DOR, disease control rate (DCR), and progression‐free survival (PFS) by IRC and investigator assessments; OS; incidence of ATAs to ADC; and safety/tolerability. PFS was defined as the time from the start of the study treatment to the first documentation of objective tumor progression (i.e., progressive disease per RECIST version 1.1) by IRC or investigator assessment (whichever was specified) or to death due to any cause, whichever came first. OS was defined as the time from the start of study treatment to the date of death due to any cause. […] Data for treatment‐related AEs (TRAEs) were evaluated by the investigator.

[2] = EV-203 safety/tolerability: adverse events; format: in vivo, human; conditions: for Treatment-related adverse event: Any: 1.25 mg/kg; for Treatment-related adverse event: Any / Treatment-emergent adverse event: Alopecia / Treatment-emergent adverse event: Anemia / Treatment-emergent adverse event: Any / Treatment-emergent adverse event: Aspartate aminotransferase increased / Treatment-emergent adverse event: Constipation / Treatment-emergent adverse event: Decreased appetite / Treatment-emergent adverse event: Diarrhea / Treatment-emergent adverse event: Hyperglycemia / Treatment-emergent adverse event: Hypokalemia / Treatment-emergent adverse event: Hyponatremia / Treatment-emergent adverse event: Hypophosphatemia / Treatment-emergent adverse event: Nausea / Treatment-emergent adverse event: Neutrophil count decreased / Treatment-emergent adverse event: Pneumonia / Treatment-emergent adverse event: Pruritus / Treatment-emergent adverse event: Pyrexia / Treatment-emergent adverse event: Rash / Treatment-emergent adverse event: Rash maculo-papular / Treatment-emergent adverse event: Vomiting / Treatment-emergent adverse event: White blood cell count decreased / Treatment-related adverse event of special interest: Corneal disorder/blurred vision / Treatment-related adverse event of special interest: Dry eye / Treatment-related adverse event of special interest: Hyperglycemia (composite) / Treatment-related adverse event of special interest: Infusion-related reaction / Treatment-related adverse event of special interest: Peripheral neuropathy (composite) / Treatment-related adverse event of special interest: Skin reaction (composite) / Treatment-related adverse event: Alopecia / Treatment-related adverse event: Anemia / Treatment-related adverse event: Aspartate aminotransferase increased / Treatment-related adverse event: Constipation / Treatment-related adverse event: Decreased appetite / Treatment-related adverse event: Diarrhea / Treatment-related adverse event: Hyperglycemia (preferred term) / Treatment-related adverse event: Hypokalemia / Treatment-related adverse event: Hyponatremia / Treatment-related adverse event: Hypophosphatemia / Treatment-related adverse event: Nausea / Treatment-related adverse event: Neutrophil count decreased / Treatment-related adverse event: Pruritus / Treatment-related adverse event: Rash / Treatment-related adverse event: Rash maculopapular / Treatment-related adverse event: White blood cell count decreased: N = 40
Description: Safety assessments included physical and ophthalmologic examinations, clinical laboratory tests, 12‐lead electrocardiography, and ECOG PS.
PFS was defined as the time from the start of the study treatment to the first documentation of objective tumor progression (i.e., progressive disease per RECIST version 1.1) by IRC or investigator assessment (whichever was specified) or to death due to any cause, whichever came first. OS was defined as the time from the start of study treatment to the date of death due to any cause. […] AEs of special interest were medical concepts of composite terms based on search criteria (standard Medical Dictionary for Regulatory Activities query or sponsor‐specific query/customized Medical Dictionary for Regulatory Activities query). For example, skin reactions included categories of rash and severe cutaneous adverse reactions (which included specific events such as drug eruption, eczema, dermatitis, mouth ulceration, stomatitis, etc.). Data for treatment‐related AEs (TRAEs) were evaluated by the investigator.
All patients who received any amount of study drug were included in the primary analyses of efficacy endpoints and safety analyses.

enfortumab vedotin: fully human monoclonal ADC directed to Nectin-4, delivering intracellular monomethyl auristatin E (MMAE) to tumor cells
Incidence of positive ATAs postbaseline [1]: 0% | Treatment-related skin reactions grade 3, patients ([2]; 13 patients): 32.5% | Treatment-related peripheral neuropathy, patients ([2]; 15 patients, all events grade 1 or 2): 37.5% | Serious TRAEs, patients ([2]; 16 of 40 patients): 40.0% | Dose interruption due to TRAEs, patients ([2]; 22 of 40 patients): 55.0% | Dose reduction due to TRAEs, patients ([2]; 25 of 40 patients): 62.5% | Grade 3 or higher TRAEs, patients ([2]; 29 of 40 patients): 72.5% | Treatment-related adverse event: Any ([2]; any grade): 40 (100) n (%) | Treatment-related hyperglycemia, patients ([2]; any grade, 22 patients): 55.0% | Treatment-related skin reactions, patients ([2]; any grade, 31 patients): 77.5% | Treatment-emergent adverse event: Alopecia ([2]; any grade): 12 (30.0) n (%) | Treatment-emergent adverse event: Anemia ([2]; any grade): 28 (70.0) n (%) | Treatment-emergent adverse event: Any ([2]; any grade): 40 (100) n (%) | Treatment-emergent adverse event: Aspartate aminotransferase increased ([2]; any grade): 26 (65.0) n (%) | Treatment-emergent adverse event: Constipation ([2]; any grade): 19 (47.5) n (%) | Treatment-emergent adverse event: Decreased appetite ([2]; any grade): 26 (65.0) n (%) | Treatment-emergent adverse event: Diarrhea ([2]; any grade): 19 (47.5) n (%) | Treatment-emergent adverse event: Hyperglycemia ([2]; any grade): 20 (50.0) n (%) | Treatment-emergent adverse event: Hypokalemia ([2]; any grade): 15 (37.5) n (%) | Treatment-emergent adverse event: Hyponatremia ([2]; any grade): 13 (32.5) n (%) | Treatment-emergent adverse event: Hypophosphatemia ([2]; any grade): 7 (17.5) n (%) | Treatment-emergent adverse event: Nausea ([2]; any grade): 20 (50.0) n (%) | Treatment-emergent adverse event: Neutrophil count decreased ([2]; any grade): 19 (47.5) n (%) | Treatment-emergent adverse event: Pneumonia ([2]; any grade): 5 (12.5) n (%) | Treatment-emergent adverse event: Pruritus ([2]; any grade): 14 (35.0) n (%) | Treatment-emergent adverse event: Pyrexia ([2]; any grade): 15 (37.5) n (%) | Treatment-emergent adverse event: Rash ([2]; any grade): 17 (42.5) n (%) | Treatment-emergent adverse event: Rash maculo-papular ([2]; any grade): 6 (15.0) n (%) | Treatment-emergent adverse event: Vomiting ([2]; any grade): 12 (30.0) n (%) | Treatment-emergent adverse event: White blood cell count decreased ([2]; any grade): 16 (40.0) n (%) | Treatment-related adverse event of special interest: Corneal disorder/blurred vision ([2]; any grade): 2 (5.0) n (%) | Treatment-related adverse event of special interest: Dry eye ([2]; any grade): 3 (7.5) n (%) | Treatment-related adverse event of special interest: Hyperglycemia (composite) ([2]; any grade): 22 (55.0) n (%) | Treatment-related adverse event of special interest: Infusion-related reaction ([2]; any grade): 2 (5.0) n (%) | Treatment-related adverse event of special interest: Peripheral neuropathy (composite) ([2]; any grade): 15 (37.5) n (%) | Treatment-related adverse event of special interest: Skin reaction (composite) ([2]; any grade): 31 (77.5) n (%) | Treatment-related adverse event: Alopecia ([2]; any grade): 12 (30.0) n (%) | Treatment-related adverse event: Anemia ([2]; any grade): 27 (67.5) n (%) | Treatment-related adverse event: Aspartate aminotransferase increased ([2]; any grade): 25 (62.5) n (%) | Treatment-related adverse event: Constipation ([2]; any grade): 16 (40.0) n (%) | Treatment-related adverse event: Decreased appetite ([2]; any grade): 25 (62.5) n (%) | Treatment-related adverse event: Diarrhea ([2]; any grade): 19 (47.5) n (%) | Treatment-related adverse event: Hyperglycemia (preferred term) ([2]; any grade): 19 (47.5) n (%) | Treatment-related adverse event: Hypokalemia ([2]; any grade): 14 (35.0) n (%) | Treatment-related adverse event: Hyponatremia ([2]; any grade): 12 (30.0) n (%) | Treatment-related adverse event: Hypophosphatemia ([2]; any grade): 7 (17.5) n (%) | Treatment-related adverse event: Nausea ([2]; any grade): 20 (50.0) n (%) | Treatment-related adverse event: Neutrophil count decreased ([2]; any grade): 19 (47.5) n (%) | Treatment-related adverse event: Pruritus ([2]; any grade): 14 (35.0) n (%) | Treatment-related adverse event: Rash ([2]; any grade): 17 (42.5) n (%) | Treatment-related adverse event: Rash maculopapular ([2]; any grade): 6 (15.0) n (%) | Treatment-related adverse event: White blood cell count decreased ([2]; any grade): 16 (40.0) n (%) | Treatment-related hyperglycemia grade 3, patients ([2]; four patients): 10.0% | Treatment-related adverse event: Any ([2]; grade ≥ 3): 29 (72.5) n (%) | Treatment-emergent adverse event: Alopecia ([2]; grade ≥ 3): 0 n (%) | Treatment-emergent adverse event: Anemia ([2]; grade ≥ 3): 6 (15.0) n (%) | Treatment-emergent adverse event: Any ([2]; grade ≥ 3): 30 (75.0) n (%) | Treatment-emergent adverse event: Aspartate aminotransferase increased ([2]; grade ≥ 3): 1 (2.5) n (%) | Treatment-emergent adverse event: Constipation ([2]; grade ≥ 3): 0 n (%) | Treatment-emergent adverse event: Decreased appetite ([2]; grade ≥ 3): 1 (2.5) n (%) | Treatment-emergent adverse event: Diarrhea ([2]; grade ≥ 3): 2 (5.0) n (%) | Treatment-emergent adverse event: Hyperglycemia ([2]; grade ≥ 3): 3 (7.5) n (%) | Treatment-emergent adverse event: Hypokalemia ([2]; grade ≥ 3): 2 (5.0) n (%) | Treatment-emergent adverse event: Hyponatremia ([2]; grade ≥ 3): 5 (12.5) n (%) | Treatment-emergent adverse event: Hypophosphatemia ([2]; grade ≥ 3): 5 (12.5) n (%) | Treatment-emergent adverse event: Nausea ([2]; grade ≥ 3): 0 n (%) | Treatment-emergent adverse event: Neutrophil count decreased ([2]; grade ≥ 3): 8 (20.0) n (%) | Treatment-emergent adverse event: Pneumonia ([2]; grade ≥ 3): 5 (12.5) n (%) | Treatment-emergent adverse event: Pruritus ([2]; grade ≥ 3): 2 (5.0) n (%) | Treatment-emergent adverse event: Pyrexia ([2]; grade ≥ 3): 0 n (%) | Treatment-emergent adverse event: Rash ([2]; grade ≥ 3): 5 (12.5) n (%) | Treatment-emergent adverse event: Rash maculo-papular ([2]; grade ≥ 3): 4 (10.0) n (%) | Treatment-emergent adverse event: Vomiting ([2]; grade ≥ 3): 0 n (%) | Treatment-emergent adverse event: White blood cell count decreased ([2]; grade ≥ 3): 5 (12.5) n (%) | Treatment-related adverse event of special interest: Corneal disorder/blurred vision ([2]; grade ≥ 3): 0 n (%) | Treatment-related adverse event of special interest: Dry eye ([2]; grade ≥ 3): 0 n (%) | Treatment-related adverse event of special interest: Hyperglycemia (composite) ([2]; grade ≥ 3): 5 (12.5) n (%) | Treatment-related adverse event of special interest: Infusion-related reaction ([2]; grade ≥ 3): 0 n (%) | Treatment-related adverse event of special interest: Peripheral neuropathy (composite) ([2]; grade ≥ 3): 0 n (%) | Treatment-related adverse event of special interest: Skin reaction (composite) ([2]; grade ≥ 3): 13 (32.5) n (%) | Treatment-related adverse event: Alopecia ([2]; grade ≥ 3): 0 n (%) | Treatment-related adverse event: Anemia ([2]; grade ≥ 3): 6 (15.0) n (%) | Treatment-related adverse event: Aspartate aminotransferase increased ([2]; grade ≥ 3): 1 (2.5) n (%) | Treatment-related adverse event: Constipation ([2]; grade ≥ 3): 0 n (%) | Treatment-related adverse event: Decreased appetite ([2]; grade ≥ 3): 1 (2.5) n (%) | Treatment-related adverse event: Diarrhea ([2]; grade ≥ 3): 2 (5.0) n (%) | Treatment-related adverse event: Hyperglycemia (preferred term) ([2]; grade ≥ 3): 3 (7.5) n (%) | Treatment-related adverse event: Hypokalemia ([2]; grade ≥ 3): 2 (5.0) n (%) | Treatment-related adverse event: Hyponatremia ([2]; grade ≥ 3): 5 (12.5) n (%) | Treatment-related adverse event: Hypophosphatemia ([2]; grade ≥ 3): 4 (10.0) n (%) | Treatment-related adverse event: Nausea ([2]; grade ≥ 3): 0 n (%) | Treatment-related adverse event: Neutrophil count decreased ([2]; grade ≥ 3): 8 (20.0) n (%) | Treatment-related adverse event: Pruritus ([2]; grade ≥ 3): 2 (5.0) n (%) | Treatment-related adverse event: Rash ([2]; grade ≥ 3): 5 (12.5) n (%) | Treatment-related adverse event: Rash maculopapular ([2]; grade ≥ 3): 4 (10.0) n (%) | Treatment-related adverse event: White blood cell count decreased ([2]; grade ≥ 3): 5 (12.5) n (%) | Dose interruption due to fatigue, patients ([2]; most common TRAE leading to dose interruption): 10.0% | Dose reduction due to rash, patients ([2]; most common TRAE leading to dose reduction): 22.5% | Hyperglycemia leading to treatment discontinuation, patients ([2]; one patient): 2.5% | Treatment-related hyperglycemia grade 4, patients ([2]; one patient): 2.5% | Death due to a TRAE, patients ([2]; one patient, acute coronary syndrome): 2.5% | Treatment discontinuation due to TRAEs, patients ([2]; two patients: acute coronary syndrome, hyperglycemia and rash): 5.0% | Deaths following malignant neoplasm progression, patients ([2]; two patients, not considered treatment-related): 5.0%
